Experimental findings from PMC4938799, “LD Motif Recognition by Talin: Structure of the Talin-DLC1 Complex” (Structure(London, England:1993), 2016) are described below.

The assay relates to paxillin-DDK. As to the kind of experiment: GST pull-down of transfected paxillin-DDK in 293 cells. It is filed as cell-based, human. From the text:
To investigate whether the biological effects of GST-R8 might be partly mediated via paxillin, we first confirmed that endogenous paxillin is expressed in cell lines A549, H358, and 293T (Figure S6A). […] As a positive control, HEK293 cells were co-transfected with a paxillin-DDK construct (OriGene) and GST-R8 (wild-type, R1544E and 2E mutants), followed by a GST pull-down assay.
Figure S6, related to figure 5. Binding of GST-talin R8 to endogenous paxillin is undetectable in A549 and H358 cells.
(A) The expression of endogenous paxillin in cell lines. Cell extracts were assayed by immunoblotting with anti-paxillin antibody. […]
NMR Spectroscopy - Spectra were processed with TopSpin (Bruker) and analysed using CCPN Analysis (Vranken et al., 2005). […] The changes in chemical shift of 15N-talin R8 domain were calculated from 1H,15N-HSQC spectra as Δδ=√(ΔδH2+(ΔδN*0.15)2). […]
Dissociation constants were evaluated from the 1H,15N-HSQC chemical shift changes in the titration experiments conducted using 0.1 mM 15N-talin R8 domain. […]
Concentrations of the DLC1 and RIAM peptides were determined from UV absorbance at 280 nm.
Concentrations of the paxillin peptide that lacks UV-active aromatic residues was determined by NMR from the comparison of the integral intensities of the well-separated signals of the methyl groups of the paxillin and RIAM peptides following the Eretic2 procedure of TopSpin (Bruker). […]

B1: GST-R8: GST-tagged talin R8, amino acids 1,453–1,580 (protein)
chain: NSQAGQQGLVEPTQFARANQAIQMACQSLGEPGCTQAQVLSAATIVAKHTSALCNSCRLASARTANPTAKRQFVQSAKEVANSTANLVKTIKALDGDFTEENRAQCRAATAPLLEAVDNLSAFASNPE
modifications: left off: GST, end not stated, kept
Consider B1, for which the “binding of paxillin-DDK” value was “formed a complex” (293 cells co-transfected with paxillin-DDK and GST-R8, listed as GST-talin R8 wt); “did bind paxillin-DDK, and did so more efficiently than 2E GST-R8 talin mutant” (293 cells co-transfected with paxillin-DDK and GST-R8, listed as wild-type GST-R8).
